In a protein production outcome set (Wang et al. 2014) one finds protein production data, which are given here for 19 sequences.
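Further: failed if final PepcDB status was selected cloned or expressed and not failed if soluble or beyond.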

This data set in a line: label from the status in PepcDB records.
Consider “MNQEFFMLSQAMVEHLNEQINLEFFSSNLYLQMSAWCEDKGFDGAAEFLRAHAVEEMQHMQRLFTYVSETGALPILGAIAAPRHDFASLGEVFRETYQHEQKITQQINKLAHVAFTSQDYSTFNFLQWYVAEQHEEEKLFKGILDKLELVGEDGKALFFIDKDLAALAKKGSSSVMDAPAE”, for which the protein production entry is given as “not failed”.
The value for “MNQLIFDFAAHDYPSFDKFLGTENAELVYVLRHKHGQFIYVWGEEGAGKSHLLQAWVAQALEAGKNAAYIDAASMPLTDAAFEAEYLAVDQVEKLGNEEQALLFSIFNRFRNSGKGFLLLGSEYTPQQLVIREDLRTRMAYCLVYEVKP” was “failed”; that for “MNQLSRSACTAPQRGGAWQWIACWALLLFTLLVAPLAAAQAVQGNASQEAALTVAPAPRVGVVTMQPGEVFFERFGHDAIVVVDPRTQQATSYNFGFFDPSEPDFVPRFARGDMMYYLVALPLEEDLSQYRDAGRGVSVQWLDLPPDQARALAEGLAVRSQPENARYHYDYFMANCATMVRDTLDRAMGGALKSQLAGRSRGNTFRSEAVRLASPAPWMWLGFDLGLGPYADRPLSRWEEAFVPMRLADSLTQVHNSAGRPLVQSTQVLLPHRIAPEPAEQQRHWWPWLLTGLIVAAGVLALGRRQRLLAGLALPFWLLCAIGGGLLVYLWGFTAHASAWGNRNLLLVNPLCMLLWFGGIRLQLGHRPGRWFNVLSWVVAACALAALVIHWLSFQAQDNLQWVMLLLPIHTALAIALRLRDLPVRTR” was “failed”; that for “MNQLTSSFIQNLAEDNIYKLPPHSIEAEQSVLGGLMLDNQAWDKVADIIIESDFYRQDHQLIYQHISRLIEQNKPADVITVAESLENAAQLQHAGGLAYIGAIAQNTPSAANIRRYAEIVRERSIMRKL” was “failed”.
Regarding “MNQPASAYFMDERKDPVETHTLSVLVQNEPGVLARVIGLFSGRGYNIESLTVSETEAQKHVSRITIVTTGTLAVIQQIKHQLDRMVPVYRVVDMTLSGRSIERELAMVKLRGVGEHRVEALRLAEAFRARVIDATIESFVFEITGNSAKINQFIDLMRPLGLVEVSRTGVAAIGRGPEGM”, the protein production entry is given as “failed”.
For the sequence “MNQPFLSVVIATFNVAEVLRECLHSLASQTFRDFEVVIQDGASTDGTLAVAQEAAGRLPRLSLASVADSGIYDAWNRALPRVTGDWVLFLGSDDTLAGPDVLAQCARRLADLPPQVLYACGDALEVYPDGSSRAVTCTAEGATRRMADHIPFCHSSLWHRACLFEARHFDATLRIAADYDLICRTWPHDGVGHTLGITVTHMGVGGVSSSPAHRLRTQWELVRVAARHGHGAFSRRRLVPLCKAVGLWVLCRLAGRRASVMLDRLRVMRGLPPCWTTADPARVGGRDSARGDALEHHHHHH”, the protein production result was “failed”.
Take “MNQSLSPQQSPGFLFIAVSMITCLILLINVSFKIILLGGLVFAINSLICPLIAALFLFALRNCTFKEQRHLLNICLMTLYMFCIGVYVLVNLPAAEYMHDNPAYQVIFEEIPKKFFATTIAFALSFYLPHLLFCTKNDRVLSTPKQCVLLALLGGVSFFCLDFYLLFSAPHAHSFKQIFIDSFMISSLLLLIIGVVYLTFLLNDKQHKGKALIETTELTLFPIYQYLICFAVTVMLVCLACEYRIIAINKDLVLSASCIFFPITIIISSIVGELWGYQANLKLALALLAAQFIFDMLLMGSVALPSPPFFNLNPFYHYIMPRRLSAASLSLFVTFLGNAMLLHYLKYSKWKINRSLRILIANISVNSLLCLVDYSLLYGGIYPYEQIINLAVSVWQYKLLTALIALPVILWMCKILERNYSLVVQTERN”: the protein production entry is “failed”.
Regarding “MNQTRVLLIFSWLTVATLLWMDWSKNKNETLEISASHNLGVDSNLELEHAVPQIHAGAVPLQKDSQLIAAAPKVPVINVTTDVLQLKLDGFSILAADLLRFPQSKDRGAKPIKLLTDDPNYPYSATTGWVSQSNSPVPNLSTFLPEQPDVSYKLANDQNRLVVPFIWTAANGVSIRRTFTFERGRYAILIRDEIRNSGETPWNAYVFRKLSRVPIPNILNRAMTNPDSFSFNGAVWYSEKGGYERRAFKDYMNDGGLNREIGGGWIALLQHHFFTAWIPQKDQASLYLLAQNGSRDIAELRGPAFTVAPGQTTTTEARLWVGPKLVEQITKEHVKGLDRVVDYSRFQLMALIGQGLFWILSHLNSLLHNWGWAIVGLVVLLRIAMYPLSASQYKSAAKMRKFQPRLQQLKERYGEDRQKFQQAMMELYKKEKINPMGGCFPILIQMPIFFALYWVLVESVELRQAPWLGWIQDLTTRDPYFILPLLNIVIMWATQKLTPTPAGMDPIAGKMMQVMPLIFGVMMAFVPSGLALYWVINGGLNLLIQWWMIRQHADFSRKRSRENIK”, the protein production result is listed as “failed”.
As to “MNRARDWLEQARHNLRHAQGSLGLGDYAWACFAAQQAAEAALKGLHLARGQVAWGHSILDLLADLPEDVDVPEDLVEAAKVLDKYYIPTRYPDAHPAGPAARHYTRLEAEEALDLAQKILAFVEEKL”, the protein production entry is reported as “not failed”.
On to “MNRAREINYLNSIALHQPFGIVGVSGETGIGKTTVLNFVNPEGVFTVRVNISLRDSMESILYDLLHSLALSLEKVEEVSDLAKEVRKWITDEVSTIKGFSLGVSFGVNASLTHEKSIRPRFNFFKAREKLGELIKQTVQRKGKFLLIIDELDKEKKEDVLRVIDSIKNFIIMEDFVVILSLPFSIYREYAADRLRWNEAGNLENIFTDIVFVEPLKKLEIKELIIKRLGSYIELIEDGVLDIVADFSDGNPRDGLWILTKAIYDNIHKELLSKEDLINTINRTISEYTGLTLNLTENQKKAIRVLRGSVYSREKIIETLQKEGFKRTTAYSVMDQLLQKRILLVEKEGYRISGKFSYMEI”, for which the protein production result is listed as “failed”.
“MNRDLPVLRALRSLPDKVVGEALVSNDAISMRYDVDASTGKVVRPSHDLYGQSISGKVLIFKNTKGGVATGWALLNLKSRGTAPIALVCDTTNPVFVQGAALAGLPIMDGFRESPRSAVRTGDVVELDGISGELKVLRRGAGGQLEHHHHHH”: the protein production result was “failed”.
With “MNRHLIHRRDILDTLVADLQAQQPDHIAVTGDLVNIALVNEFAPARQWLESVGPADRVSLVPGNHDAYVRSTAHRFAETFPDYISGDDATPGFPYLRRREAIAIIGVSSAVPTAPLRATGWLGAPQRAALEALLQSLAGERVFKVLLIHHPLQSRSRHKRLTDAADLIALLQRHPVDLVLHGHDHVHATVRIDTPFGAIPVVGVPSASAMNDRHRPSAAYNLFKISEGNDGWRCLEHHHHHH”, the protein production entry is recorded as “failed”.
On to “MNRICELLGIEHPIISGGMVWCSGWKLASAVSNCGGLGLIGAGSMHPDNLEHHIRSCKAATDKPFGVNVPLLYPEMDKIMEIIMREHVPVVVTSAGSPKVWTAKLKAAGSKVIHV”, for which the protein production result is recorded as “failed”.
The result for “MNRILQQVANQYWFRVSLTVICCLATICLGVHQSYVWFSVSACLLILSIIWQVRLYRLHIKQVLFMIDALENNDSAFRFPEESGTPESKQINRALNRVGHILYNVKAETAQQEKYYKLILDFVSTGLLVLNDNGAVYQKNKEALRLLGLNVFTHVRQLSKVDATLMEKIESCCSGDKLQVVFHNERGTVNLSIRVSEINVHKEHLRILALNDINIELDEKEIDSWIRLTRVLTHEIMNSVTPITSLSDTLLSMVEDKDEEISHGLQTISATGKGLLAFVESYRKFTRIPTPEPSLFYLKAFIERMVELARHQNPCDHITFHTKIDPADLILHADENLISQVVINLLKNAIQAIGDQPDGQIDIQVYCNETEEVLIEIKNNGPVIPPEIVEHIFIPFFTTKEGGSGIGLSISRQIMRLSGGSLTLLPDNKETKFILKFK” reads “failed”; that for “MNRINYIRQAEKKYHDLCYEQYKLFETGSWLYKPVKTVMDLMDHFEGQNNLQVLDLGSGVGRNSIPIAQQIQNTSGTVTCVDLLDSALTKLKTYTKEHGVFEVIKTEQAAIENYYIVPNTYDYIVAVSSLEHVQSEEDLTNVLHSIKEGTKTGGINCLIINSNIQEIDLHTKEELDALIEINLPTEDMIHLLKSIYKEWKEIKVEIKELVYDIVRDEKQIQLKTNAITFVVQK”, “failed”.
The value for “MNRKILVTGATGSNGTEIVKRLAAKNVQVRAMVRDFDRAKKIAFPNVEVVEGNFDRPETLLEALAEVDRAFLLTNSTERAEAQQLAFVDAARQNGVKHIVKLSQFAADAHSPVRFLRYHAAVEAAIQGSGMTYTFLRPNLFMQGLLNFQSTITSQNAFYAAISDAKVSVVDVRDIADVAVVALTETEHEGKIYNLTGPQALTHAEMAEQLSAALNRQIAFVDIPSEVMRDQLLNIGMPPWQADGVIEDYAHYRRNEAAAVSSGIQDAIGKEPRSFNTFACDYAAMFG” was “failed”; that for “MNRKLRRANLKASEPTPHETGNVINYMRQGRYAEAAHLAKGLTERFPDHGFGWKILGICTLLLGQNGDALPLFLKAAGLLPDDPDIHCNIGIIYYELNQLNEAEYYCRYALKLRPNDAIAHNNLGNILSSLGRLDEAEACFRRAIENNPDLAQAHYNLGSALQALGRLEEAESCYRRATAIRPTYEEAYASLGNVLKEMGRLDEALESWKLSLAHQEDWTNALRRLTNPLLMDGDLTRGPEYPAADAAEGQPRQLSSHPAAASVESLDRKYRVPSHGHDGSAEAGAVAGRDENAPRPLRIVLVYPPLWQIPSADLAVPEGMPFGPPATAGGPVAISRELKTITQGVLSIAAQAKKAGHDVRVYNLFNAPWADIVALIAGTGADVYGVSAYNSNRRGMGALCALIRQYHPHAHITVGGPFATTLPLETLRYYRAIDTVVVGEGEETFMELLDHIRSHRPAVGIPGTAWRNGDEVALGPVRPRIGDLDTLASHFDYYSSNIVMTSRGCPSKCSFCGNPVLWGRKIRFYSTDYCIDMFRKALARLPVPYLMIADDTFTANQQRTLNMCDAIIGNKLDFLWSCSTRVDAMEDKVLHRMRRAGCQEIMIGVESGSPEILERIHKGITPEMVLTVTRAAKKYGMLVHYYMMVINRGETPDTLQASIDLIKAGRPNSYDLTPLMFLPGTEDYGHLCEQQGLTSDIFFRNDFMDISVERKRKKDLDTVMQHLYCSIGTIGGYEYTVAEREAVVEHLPDVPTVHVELANAYLRAGQLDKATAALTRAEELGFPIGNIILNQHACIALARNQIDTSLDFLERACRSFPDVTVKGNYDKLAAWIDSRTSGQVKPCLLCDSVRAQDFVFRADETAP” was “failed”.
In the case of “MNRLKNMSKYSDAKELASLTLGKKTEYANQYDPSLLQPVPRSLNRNDLHLSATLPFQGCDIWTLYELSWLNQKGLPQVAIGEVSIPATSANLIESKSFKLYLNSYNQTRFASWDEVQTRLVHDLSACAGETVTVNVKSLNEYTAEPIVTMQGECIDDQDIEIANYEFDDALLQGAAQGEEVSEVLHSHLLKSNCLITNQPDWGSVEIAYHGAKMNREALLRYLVSFREHNEFHEQCVERIFTDIMRYCQPQSLTVYARYTRRGGLDINPFRSSHQSAPNHNQRMARQ”, the protein production result was “not failed”.
The value for “MNRLQGMELFVEVARTLSFGRAAENLAIPKSTLSRQVAELERSVGLRLLSRTTRRVELTEAGQLYFERCQRIVAEARIAHEELQNLVETPSGPLRVNMPADFGTDFLSEAFTEFSRRYPEVTFYLDLASPEHAERVFQTCDVSIEIGDLPDSTHIARLLGVLPAHLYASPDYLARHGEPQHPDDLPRHECIQFRAGTGRVTRWPLNSGERHVEITPGNRFSVNSVSMVRNLATLGAGIAILAPMGNVREDIESGRLKRILPDWLAGPFPVYAVTDTRMLPAKTRIFVEFLMERLSNKTLAGQNNPAFLNLR” was “failed”.
